Measurements reported in paper PMC7255614, “Strain-specific joint invasion and colonization by Lyme disease spirochetes is promoted by outer surface protein C” (PLoS Pathogens, 2020).

B1: GST-OspC_(B31-ECM)^- (natural protein, B. burgdorferi strain B31-A3, UniProt Q07337 19-210, looked up)
chain: CNNSGKDGNTSANSADESVKGPNLTEISKKITDSNAVLLAVKEVEALLSSIDEIAAKAIGKKIHQNNGLDTENNHNGSLLAGAYAISTLIKQKLDGLMNEGLMEMIDAAMMCSETFTNKLKEKHTDLGKEGVTDADAKEAILKTNGTKTKGAEELGKLFESVEVLSKAAKEMLANSVKELTSPVVAESPKKP
notes: Cloned into pGEX4T2 at BamHI and SalI; also called OspCECM^-; source: E. coli BL21(DE3), purified by glutathione chromatography
B2: GST-OspCB31 (natural protein)
chain: CNNSGKDGNTSANSADESVKGPNLTEISKKITDSNAVLLAVKEVEALLSSIDEIAAKAIGKKIHQNNGLDTENNHNGSLLAGAYAISTLIKQKLDGLKNEGLKEKIDAAKKCSETFTNKLKEKHTDLGKEGVTDADAKEAILKTNGTKTKGAEELGKLFESVEVLSKAAKEMLANSVKELTSPVVAESPKKP
notes: Cloned into pGEX4T2 at BamHI and SalI; also called wild type OspCB31; source: E. coli BL21(DE3), purified by glutathione chromatography
B3: OspCB31, untagged (natural protein, B. burgdorferi strain B31-A3, UniProt Q07337 19-210, looked up)
chain: CNNSGKDGNTSANSADESVKGPNLTEISKKITDSNAVLLAVKEVEALLSSIDEIAAKAIGKKIHQNNGLDTENNHNGSLLAGAYAISTLIKQKLDGLKNEGLKEKIDAAKKCSETFTNKLKEKHTDLGKEGVTDADAKEAILKTNGTKTKGAEELGKLFESVEVLSKAAKEMLANSVKELTSPVVAESPKKP
notes: OspC (outer surface protein C) of B. burgdorferi strain B31-A3, without GST tag; Probably the GST fusion with the tag removed
B4: GST-OspC_(VS461) (natural protein, B. afzelii strain VS461, UniProt Q0SL36 19-212, looked up)
chain: CNNSGKGGDSASTNPADESAKGPNLTEISKKITDSNAFVLAVKEVETLVLSIDELAKKAIGQKIDNNNGLAALNNQNGSLLAGAYAISTLITEKLSKLKNLEELKTEIAKAKKCSEEFTNKLKSGHADLGKQDATDDHAKAAILKTHATTDKGAKEFKDLFESVEGLLKAAQVALTNSVKELTSPVVAESPKKP
notes: Cloned into pGEX4T2 at BamHI and SalI; source: E. coli BL21(DE3), purified by glutathione chromatography
B5: OspC_(VS461), untagged (natural protein, B. afzelii strain VS461, UniProt Q0SL36 19-212, looked up)
chain: CNNSGKGGDSASTNPADESAKGPNLTEISKKITDSNAFVLAVKEVETLVLSIDELAKKAIGQKIDNNNGLAALNNQNGSLLAGAYAISTLITEKLSKLKNLEELKTEIAKAKKCSEEFTNKLKSGHADLGKQDATDDHAKAAILKTHATTDKGAKEFKDLFESVEGLLKAAQVALTNSVKELTSPVVAESPKKP
notes: OspC (outer surface protein C) of B. afzelii strain VS461, without GST tag; Probably the GST fusion with the tag removed

What was measured:
[1] = target: T1, fibronectin (UniProt P02751 32-2477); test: ELISA; wells coated with 10 μg/ml purified fibronectin in 0.05 M Na2CO3 pH 9.0; 0.03125-2 μM GST or GST-tagged OspC variants, 1 hr at ambient temperature; goat anti-GST and HRP-conjugated anti-goat IgG; estimated KD from a fit of OD405; settings: both partners purified
T1 sequence (P02751 32-2477): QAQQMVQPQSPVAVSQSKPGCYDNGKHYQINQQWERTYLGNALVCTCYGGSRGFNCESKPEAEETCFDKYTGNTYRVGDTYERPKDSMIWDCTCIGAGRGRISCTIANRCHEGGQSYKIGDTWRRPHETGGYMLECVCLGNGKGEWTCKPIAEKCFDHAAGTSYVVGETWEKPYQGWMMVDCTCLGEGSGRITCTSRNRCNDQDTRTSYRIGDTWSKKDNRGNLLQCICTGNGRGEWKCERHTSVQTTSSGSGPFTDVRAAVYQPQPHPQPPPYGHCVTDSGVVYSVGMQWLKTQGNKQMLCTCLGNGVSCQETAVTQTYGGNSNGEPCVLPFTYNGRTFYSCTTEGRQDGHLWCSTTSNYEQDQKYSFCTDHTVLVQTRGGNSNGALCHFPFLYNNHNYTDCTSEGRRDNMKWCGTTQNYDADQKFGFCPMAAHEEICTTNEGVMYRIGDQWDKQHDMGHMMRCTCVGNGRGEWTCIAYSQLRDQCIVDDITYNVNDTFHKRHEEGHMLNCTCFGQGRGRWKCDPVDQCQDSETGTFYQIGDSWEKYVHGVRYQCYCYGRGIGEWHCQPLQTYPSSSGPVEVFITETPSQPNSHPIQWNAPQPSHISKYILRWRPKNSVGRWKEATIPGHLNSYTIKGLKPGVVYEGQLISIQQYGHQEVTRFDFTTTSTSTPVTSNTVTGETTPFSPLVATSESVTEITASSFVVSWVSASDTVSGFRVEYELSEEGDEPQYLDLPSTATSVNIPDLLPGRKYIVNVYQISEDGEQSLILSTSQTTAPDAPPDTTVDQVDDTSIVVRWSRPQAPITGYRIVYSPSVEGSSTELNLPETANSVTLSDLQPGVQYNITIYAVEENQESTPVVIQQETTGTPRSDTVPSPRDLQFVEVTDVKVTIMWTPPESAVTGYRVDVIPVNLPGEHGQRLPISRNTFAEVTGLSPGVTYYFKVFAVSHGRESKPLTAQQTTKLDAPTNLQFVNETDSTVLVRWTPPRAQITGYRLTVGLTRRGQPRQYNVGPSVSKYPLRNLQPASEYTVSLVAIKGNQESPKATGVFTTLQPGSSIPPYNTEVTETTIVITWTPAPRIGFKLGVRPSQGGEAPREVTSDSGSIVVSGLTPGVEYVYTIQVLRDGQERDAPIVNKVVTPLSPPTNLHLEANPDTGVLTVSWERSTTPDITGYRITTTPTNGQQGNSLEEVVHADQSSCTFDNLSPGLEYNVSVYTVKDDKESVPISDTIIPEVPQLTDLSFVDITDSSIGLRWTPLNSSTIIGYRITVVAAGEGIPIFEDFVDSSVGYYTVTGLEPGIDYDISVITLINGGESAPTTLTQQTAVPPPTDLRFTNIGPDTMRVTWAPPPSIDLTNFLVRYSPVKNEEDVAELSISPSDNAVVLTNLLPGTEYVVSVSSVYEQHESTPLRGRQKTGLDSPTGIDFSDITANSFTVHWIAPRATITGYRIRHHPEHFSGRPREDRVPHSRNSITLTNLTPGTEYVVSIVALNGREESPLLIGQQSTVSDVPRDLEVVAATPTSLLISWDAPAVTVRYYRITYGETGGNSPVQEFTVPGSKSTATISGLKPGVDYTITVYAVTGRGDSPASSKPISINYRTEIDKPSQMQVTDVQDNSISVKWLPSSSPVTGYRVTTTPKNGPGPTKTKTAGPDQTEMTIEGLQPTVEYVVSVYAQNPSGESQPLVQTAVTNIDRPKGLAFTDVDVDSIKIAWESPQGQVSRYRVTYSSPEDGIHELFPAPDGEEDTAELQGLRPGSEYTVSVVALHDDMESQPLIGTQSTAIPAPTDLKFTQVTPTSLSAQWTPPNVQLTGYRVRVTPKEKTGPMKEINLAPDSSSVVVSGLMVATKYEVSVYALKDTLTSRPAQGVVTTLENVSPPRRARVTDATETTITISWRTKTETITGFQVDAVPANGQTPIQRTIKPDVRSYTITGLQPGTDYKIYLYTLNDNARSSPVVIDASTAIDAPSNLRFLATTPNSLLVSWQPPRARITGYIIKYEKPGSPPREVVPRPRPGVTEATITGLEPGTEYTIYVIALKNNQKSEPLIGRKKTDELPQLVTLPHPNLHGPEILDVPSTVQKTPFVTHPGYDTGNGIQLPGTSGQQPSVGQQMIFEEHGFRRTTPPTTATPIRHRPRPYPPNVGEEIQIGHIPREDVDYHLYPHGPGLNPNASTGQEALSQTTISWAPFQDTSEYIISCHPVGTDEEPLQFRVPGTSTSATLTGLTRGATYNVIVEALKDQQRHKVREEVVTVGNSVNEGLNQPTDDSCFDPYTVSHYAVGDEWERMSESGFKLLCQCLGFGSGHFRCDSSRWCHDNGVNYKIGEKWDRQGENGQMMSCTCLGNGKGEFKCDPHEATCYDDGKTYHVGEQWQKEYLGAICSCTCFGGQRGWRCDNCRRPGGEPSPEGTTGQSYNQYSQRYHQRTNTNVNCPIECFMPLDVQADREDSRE

[2] = target: T1, fibronectin; test: SPR; Biacore 3000; fibronectin on a CM5 chip; 0-500 nM untagged OspC variants injected at 10 μl/min, 25°C; 1:1 Langmuir model; KD from the average koff divided by kon of each run; settings: both partners purified

Binder | Kd [1] | Kd [2] | koff [2] | kon [2]
B1 | 2140 nM |  |  | 
B2 | 3460 nM |  |  | 
B3 |  | 9210 nM | 0.13 s⁻¹ | 19900 M⁻¹ s⁻¹
B4 | 520 nM |  |  | 
B5 |  | 800 nM | 0.09 s⁻¹ | 151000 M⁻¹ s⁻¹
